Measured values published in PMC6806390.

Molecular target: T1, Myoglobin from Horse Heart (Sigma M-9267) (horse), P68082
T1 chain: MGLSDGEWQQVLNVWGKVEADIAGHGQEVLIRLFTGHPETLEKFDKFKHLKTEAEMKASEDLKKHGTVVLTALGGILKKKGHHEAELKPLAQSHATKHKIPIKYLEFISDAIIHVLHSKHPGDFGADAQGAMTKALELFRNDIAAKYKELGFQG
Assay: SDS-PAGE of the methanol precipitate
Conditions: remark: other sources report otherwise

stoichiometry N: 3
B1: Myoglobin from Horse Heart (Sigma M-9267), P68082 1-154 (natural protein)
chain: T1 chain
